Measurements: US20230227539A1 (HIFIBIO HK, published 2023)
Residue numbers refer to the chain shown, from its start.

B1: Ab-2 IgG1 (antibody, V domains shown)
VH: EVQLVESGGGLIQPGGSLRLSCAASGFIVSSNYMSWVRQAPGKGLEWVSIIYSGGSTFYADSVKGRFTISRDNSKNTLYLQMNSLRVEDTAVYYCARDLQELGSLDYWGQGTLVTVSS
VL: DIQMTQSPSSVSASVGDRVTITCRASQGISSWLAWYQQKPGKAPKLLIYAASSLQSGVPSRFSGSGSGTDFTLTISSLQPEDFATYYCQEANSFPYTFGQGTKLEIKR
notes: also called 2A2A; C1S5-2A2A
B2: Ab-3 (IgG1) (antibody, V domains shown)
VH: QLQLQESGPGLVKPSETLSLTCTVSGGSISSTIYYWGWIRQPPGKGLEWIGSIYYSGNAYYNPSLKSRVTISVDTSKNQFSLMLNSVTASDTAVYYCATPHTRWGPDYWGQGTLVTVSS
VL: NFMLTQPHSVSASPGKTVTVSCTRSSGSIASNYVLWYQQRPGSAPTTVIYEDDQRPSGVPDRFSASIDSSSNSASLTISGLKTEDEADYYCQSYDGDNLVFGGGTKLTVLG
B3: Ab-1 (IgG1) (antibody, V domains shown)
VH: B2 VH with T32S, M83K, S90A
VL: B2 VL
B4: Ab-4 (IgG1) (antibody, V domains shown)
VH: QITLKESGPTLVKPTQTLTLTCTFSGFSLSTSGVGVGWIRQPPGKALEWLALIYWDDDKRYSPSLKSRLTITKDTSKNQVVLTMTNMAPVDTATYYCAHRLSNFWSGYYTGWGQGTLVTVSS
VL: not shown
B5: Ab-6 (antibody, V domains shown)
VH: QVQLVQSGAEVKKPGASVKVSCKVSGYTLTELSMHWVRQAPGKGLEWMGGFDPEDGETIYAQKFQGRVTMTEDTSTDTAYMELSSLRSEDTAVYYCATGHQLLFYNWFDPWGQGTLVTVSS
VL: QSALTQPPSASGSPGQSVTISCTGTSSDVGGYNYVSWYQQHPGKAPKLMIYEVSKRPSGVPDRFSGSKSGNTASLTVSGLQAEDEADYYCSSYAGSNNLVFGGGTKLTVLG
B6: Ab-7 (antibody, V domains shown)
VH: EVQLVESGGGLVKPGGSLRLSCAASGFAFSSYTMNWVRQAPGKGLAWVSSISSSSDYIFYADSVKGRCTISRDNAKNSLSLQMNSLRAEDTAVYYCARGSNTAWGGVPDAFDFWGLGTVVTVSS
VL: B5 VL with G31R, A82T
B7: Ab-8 (antibody, V domains shown)
VH: B1 VH with S25P
VL: B1 VL
B8: Ab-9 (antibody, V domains shown)
VH: B1 VH with Y107C
VL: B1 VL

Biological target: T1, SARS-CoV-2 S protein on pseudotyped virus (wild type) (SARS-CoV-2, UniProt P0DTC2 14-1273)
Experiment: cell-based or functional assay

| Binder | Pseudo-virus neutralization (Test 1) IC80 [nM] | Pseudo-virus neutralization (Test 2) IC50 [nM] | Pseudo-virus neutralization (Test 2) IC80 [nM] |
| --- | --- | --- | --- |
| B1 | 2.11 | 0.32 | 1.29 |
| B2 | 23.2 | 2.61 | 10.4 |
| B3 | 16.3 | 1.62 | 6.48 |

Biological target: T2, SARS-CoV-2 S1 protein (S1 fragment of the S protein) (SARS-CoV-2, UniProt P0DTC2 16-685)
T2 construct: domain: S1
Experiment: SPR negative control; as indicated by the domain ELISA

| Binder | binding result |
| --- | --- |
| B4 | no binding |

Biological target: T3, SARS-CoV-2 Spike S1+S2 ECD, his Tag protein (SARS-CoV-2, UniProt P0DTC2 14-1213)
T3 construct: extracellular domain
Experiment: ELISA, coated S1+S2 ECD His

| Binder | EC50 [nM] | EC90 [nM] |
| --- | --- | --- |
| B1 | 0.5 | 2.56 |
| B2 | 0.5 | 9.36 |
| B3 | 0.53 | 6.03 |
| B4 | 14.2 | 328 |

Biological target: T1, SARS-CoV-2 S protein on pseudotyped …
Experiment: cell-based or functional assay
Remark: another data set of the same source

| Binder | Pseudo-virus neutralization IC50 [nM] | Pseudo-virus neutralization IC90 [nM] |
| --- | --- | --- |
| B1 | 0.53 | 4.76 |
| B2 | 5.8 | 52.2 |
| B3 | 4.07 | 36.6 |
| B4 | > 300 | > 300 |

Biological target: SARS-CoV-2 Spike S1, mFc tag spike protein (SARS-CoV-2, UniProt P0DTC2 16-685)
Experiment: not given

| Binder | IC50 [nM] |
| --- | --- |
| B1 | 3.78 |
| B2 | 10.6 |
| B3 | 11.1 |
| B4 | > 300 |

Biological target: T3, SARS-CoV-2 Spike S1+S2 ECD, his Tag …
Experiment: ELISA (FIG. 6)

| Binder | binding result |
| --- | --- |
| B5 | binds |
| B6 | binds |
| B7 | binds |
| B8 | binds |

Biological target: T3, SARS-CoV-2 Spike S1+S2 ECD, his Tag …
Experiment: binding to full-length S protein

| Binder | EC50 [nM] |
| --- | --- |
| B1 | 0.55 |

Biological target: T3, SARS-CoV-2 Spike S1+S2 ECD, his Tag …
Experiment: ELISA on His-tagged S1+S2 ECD (FIG. 7)

| Binder | EC50 [nM] |
| --- | --- |
| B1 | 0.021 |
